In patent US20090291083A1, “BARB4 TARGET, ANTIBODY DESIGNATED BARB4, BARB4 RELATED ANTIBODIES, AND METHODS OF MAKING AND USING SAME” (PATRYS LIMITED, priority 2008, published 2009):

Tests used:
Assay in all cases: MTT cell proliferation assay (Table 3)
Format in all cases: cell-based, human
BxPC-3 = tested on: BxPC-3
Protocol: (§1) BARB4 was also evaluated for inhibition of proliferation of other cancer cell lines, including BxPC-3, COLO 205, H460, MDA-MB-231 and MIAPaCa-2 cells, as well as HT-29, HCT-116, BxPC-3, PANC-1, A549, PC-3 and HCT116 cells. In brief, various human cancer cell lines obtained from the American Type Culture Collection (ATCC) were established using standard in vitro culture methods and ATCC recommended media in 175 cm2 BD tissue culture treated flasks. In particular, MDAMB-231 cultures were incubated in a humidified 37° C., 100% air incubator, and BxPC-3, COLO 205, H460 and MIAPaCa-2 cultures were incubated in a humidified 37° C., 5% CO2, 95% air incubator. Cultures were sub-cultivated regularly to maintain log phase growth. All cell lines were brought up from cryopreservation using the original recommended ATCC media type and supplements. Cell line specific seeding densities were based on historical data from MIR Preclinical Services for growth over a 72 hr period.
(§2) The anti-proliferative activity of BARB4 and cisplatin was evaluated using the MTT cell proliferation assay (ATCC catalog #30-1010K). The assay is based on the reduction of yellow tetrazolium MTT (3-(4,5-dimethylthiazolyl-2)-2,5-diphenyltetrazolium bromide) by metabolically active cells forming purple formazan crystals. The purple formazan is solubilzed with detergent and quantified spectrophotometrically at 570 nm (MTT Cell Proliferation Assay, ATCC 30-1010K; Van de Loosdrecht, et al. J. Immunol. Methods 174:311 (1994): Ferrari, et al. J. Immunol. Methods 131:165 (1990); Gerlier, D., and N. Thomasset. J. Immunol. Methods 94:57 (1986); Alley, et al. Cancer Res. 48:589 (1988); and Mosmann, T. J. Immunol. Methods 65:55 (1983)). The MTT Cell Proliferation Assay Kit from ATCC contains ready to use MTT and detergent solutions.
(§3) Cells in the log phase of growth were seeded into 96-well culture plates in 0.1 mL of complete medium in all wells except column 12 which was reserved for media-only control (blank) and allowed to attach overnight at 37° C. Compounds were diluted in complete culture media and added to each well in a volume of […] for a final 1:2 dilution from the 2× dilution reservoir concentration. At 24 and 48 hr post-treatment, 100 μl of media was removed and 0.01 mL of MTT reagent was added to each well. The plates were returned to the incubator for four hours. Detergent reagent (0.1 mL) was then added and the plates incubated overnight at 37° C. in the dark to solubilize the formazan crystals. The absorbance at 570 nm was measured with a SpectraMAX® Plus plate reader (Molecular Devices Corporation) at 24 and 48 hr post-detergent addition. Absorbance values were converted to percent of control and then plotted against test agent concentrations for IC50 calculations using SoftMax® Pro v. 5.2 (Molecular Devices Corporation). Plots of percent of control vs. compound (BARB4 or cisplatin) concentration were analyzed using the 4 parameter equation to obtain IC50 values and other parameters that describe the sigmoidal curve along with an R2 value.
(§4) Using the same MTT assay as described for the BxPC-3, COLO 205, H460, MDA-MB-231 and MIAPaCa-2 cells, proliferation of HT-29, HCT-116, BxPC-3, PANC-1, A549, PC-3 and HCT116 cells was evaluated and IC50 (μg/ml) was calculated at 24, 48 and 72 hours. The cell culture protocol for passaging adherent cells used is substantially as described above for the BxPC-3, COLO 205, H460, MDA-MB-231, and MIAPaCa-2 cells. The following were the cell line propagation conditions:
(§5) Atmosphere. 5% CO2, humidified Media Supplements Used: * FBS—Fetal Bovine Serum (Gibco 10082-147; lot #1354986), * PSG—Penicillin, Streptomycin, L-Glutamine Solution (CellGro 30-009-CI), * 0.1M Na Pyruvate (CellGro 25-000-CI), * 1.0M HEPES (CellGro 25-060-CI), AND * 45% Glucose (CellGro 25-037-CI). Seeding Densities* for IC50 Assays: A549 2.5×10^3; PC-3 6.0×10^3; HT-29 12×10^3; HCT-116 8.0×10^3; BxPC-3 12×10^3; and PANC-1 6.0×10^3 cells.

HCT-116 = tested on: HCT-116
Protocol: as §1, §2, §3, §4, §5

PC-3 = tested on: PC-3
Protocol: as §1, §2, §3, §4, §5

A549 = tested on: A549
Protocol: as §1, §2, §3, §4, §5

PANC-1 = tested on: PANC-1
Protocol: as §1, §2, §3, §4, §5

HT-29 = tested on: HT-29
Protocol: as §1, §2, §3, §4, §5

B1: BARB4: human IgG antibody produced by hybridoma DSMZ Deposit No. DSM ACC2876; heavy chain SEQ ID NOs:1, 3, 5, 7, light chain SEQ ID NO:9 (antibody, V domains shown)
VH: QVQLVESGGGVVQPGRSLRLSCAASGFRFTTHGMHWVRQAPGKGLEWVAVISYNGRNKYYADYVNGRFTISRDDSRDTVFLQMNSLRPEDTAMYYCAKVRGDGYGDYGYFDYWGHGTLVSVSS
VL: QSALTQPRSVSGSPGQSVTISCTGTYNYVSWYQQHPGKAPKLMIFDVSRRSSGVPDRFSGSKSGNTASLTISGLQAEDEADYYCCSYGGTYLYVFGTGTTVTVLGQ
Question: Which results are given for B1?
Answer: IC50 24 hours (BxPC-3; 24 hours): 88.9 µg/mL; IC50 48 hours (BxPC-3; 48 hours): 362.8 µg/mL; IC50 72 hours (BxPC-3; 72 hours): 511.4 µg/mL; IC50 24 hours (HCT-116; 24 hours): 24.8 µg/mL; IC50 48 hours (HCT-116; 48 hours): 77.3 µg/mL; IC50 72 hours (HCT-116; 72 hours): 95.2 µg/mL; IC50 24 hours (PC-3; 24 hours): 57.2 µg/mL; IC50 48 hours (PC-3; 48 hours): 64.2 µg/mL; IC50 72 hours (PC-3; 72 hours): 155.7 µg/mL; IC50 24 hours (A549; 24 hours): 98.9 µg/mL; IC50 48 hours (A549; 48 hours): 111.2 µg/mL; IC50 72 hours (A549; 72 hours): 122.2 µg/mL; IC50 24 hours (PANC-1; 24 hours): 91.4 µg/mL; IC50 48 hours (PANC-1; 48 hours): 337.1 µg/mL; IC50 72 hours (PANC-1; 72 hours): 353.2 µg/mL; IC50 24 hours (HT-29; 24 hours): 399.5 µg/mL; IC50 48 hours (HT-29; 48 hours): 300.1 µg/mL; IC50 72 hours (HT-29; 72 hours): 228.8 µg/mL
